Results: article PMC7886318, “Nanobody generation and structural characterization of Plasmodium falciparum 6-cysteine protein Pf12p” (Biochemical Journal, 2021)

T1: His-tagged Pf41 (Plasmodium falciparum, UniProt Q8I1Y0 21-368)
T1 construct: Pf41, 6-cysteine protein of Plasmodium falciparum, residues K21-S368 (domains D1 and D2); The form loaded on Ni-NTA sensors for BLI; a TEV site stands between the His8 tag and Pf41; also called immobilized Pf41; source: Sf21 insect cells (baculovirus), purified following the protocol of Pf12p with some modifications; not shown: His8, N-terminal, kept
T1 sequence: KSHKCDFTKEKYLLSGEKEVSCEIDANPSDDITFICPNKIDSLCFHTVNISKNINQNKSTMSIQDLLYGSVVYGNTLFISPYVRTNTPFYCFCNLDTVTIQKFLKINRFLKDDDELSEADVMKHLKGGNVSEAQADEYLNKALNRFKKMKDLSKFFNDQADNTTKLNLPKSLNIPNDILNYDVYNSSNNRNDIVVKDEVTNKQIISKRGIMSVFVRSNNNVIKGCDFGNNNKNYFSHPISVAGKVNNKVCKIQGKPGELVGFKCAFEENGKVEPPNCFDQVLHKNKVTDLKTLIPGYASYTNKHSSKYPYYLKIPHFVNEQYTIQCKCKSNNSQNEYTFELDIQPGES

B1: nanobody B2 (VHH)
VHH: QVQLQESGGGLVQPGGSLRLSCAASGSAFSRVAMGWYRQAPGKLREYVADITRGGTTDYADSVKGRFTISRDNAKNTIYLQMDSLKPEDTAVYYCNLVPPIRGGYWGQGTQVTVSS
notes: From a phage library (pMES4 phagemid) of an alpaca immunized with Pf12p D1D2; source: E. coli WK6, periplasmic extract, purified (HisTrap, SEC)
B2: nanobody C12 (VHH)
VHH: QVQLQESGGGLVQPGGSLRLSCAASGSAFSRVAMGWYRQAPGKLREYVADITRGGTTDYADSVKGRFTISRDNAKNTVFLQMDSLKPEDTAVYYCNSVPPIRGGYWGQGTQVTVSS
notes: as for B1
B3: nanobody D9 (VHH)
VHH: QVQLQESGGGLVQPGGSLRLSCAASGIIFSSHVMGWYRQAPGKQRELVASFSGDTGAKYADSVKGRFIIRRENAKNMVTLYLQMNSLKPEDTAAYYCHVDRFGTEYWGQGTQVTVSS
notes: as for B1
B4: nanobody B9 (VHH)
VHH: QVQLQESGGGLVQAGGSLRLSCTASGRTFSNTVMGWFRQAPGKEREFLAHILWSGGLAYYADSVKGRFTISRDNAKNIVYLQMNSLKPEDTAVYYCAARDFGFGNNYDYWGQGTQVTVSS
notes: From a phage library (pMES4 phagemid) of an alpaca immunized with Pf12p D1D2; also called Nb B9; source: E. coli WK6, periplasmic extract, purified (HisTrap, SEC)
B5: nanobody C4 (VHH)
VHH: QVQLQESGGGLVQPGESLRLSCAASTSIFTVYTMGWYRQAPGKLREWVADVTVGDNRDYVDSVKGRFTISRDNATNTVYLQMNNVKPEDTAVYYCNRVPPGPSGSWGQGTQVTVSS
notes: as for B1
B6: Pf12p D1D2 (domain or fragment)
chain: NGVCDFSSEGLSLLPEEKLDFSVSRNVDKLSDENNVRHCVHFSKGFEYLRFICPMRKDNYEGIEIRPVECFEYIHIEGREHKLSEILKGSLYEKSINDNIMTRDVFIPPTIYEDMFFECTCDNSLTFKNNMIGIRGIMKIHLKKNILYGCDFDHDEKLMKNKTAFTNFYDKQKILPLIGNNNNDDDNNDDDNNNDNNNNDNNNNNNNNNNNNNNNNNNNITCNVTIKKSQVYLGIICPDGYTLYPNDCFKNVIYDNNIIIPLKKIIPHDILYHQDKNKRITFASFTLNINENPPGFTCYCIKDQTNINNPLIVNFHFS
B7: nanobody G6 (VHH)
VHH: QVQLQESGGGLVQPGGSLRLSCEVSGSIFSIDAMAWYRQAPGKQRELVAAILSGGSTNYADSVKGRFAISRDNAKNTGYLQMNSLKPEDTAVYYCNAEGRVSGWGPTEYDYWGQGTQVTVSS
notes: as for B1
B8: Pf12 D1D2 (domain or fragment, Plasmodium falciparum, UniProt C6KSX0 28-304, looked up)
chain: NLTCDFNDVYKLEFHPNQQTSVTKLCNLTPNVLEKVTIKCGSDKLNYNLYPPTCFEEVYASRNMMHLKKIKEFVIGSSMFMRRSLTPNKINEVSFRIPPNMMPEKPIYCFCENKKTITINGSNGNPSSKKDIINRGIVEIIIPSLNEKVKGCDFTTSESTIFSKGYSINEISNKSSNNQQDIVCTVKAHANDLIGFKCPSNYSVEPHDCFVSAFNLSGKNENLENKLKLTNIIMDHYNNTFYSRLPSLISDNWKFFCVCSKDNEKKLVFTVEASISS
notes: Pf12, 6-cysteine protein of Plasmodium falciparum, residues N28-S304 (domains D1 and D2); Called untagged for the BLI; also called untagged Pf12 D1D2; recombinant Pf12; source: Sf21 insect cells (baculovirus), purified following the protocol of Pf12p with some modifications; not shown: His8, N-terminal, cleaved
B9: nanobody H7 (VHH)
VHH: QVQLQESGGGLVQAGGSLRLSCAASGRTSSSYAVAWFRQAPGKERQFVATIGYDGVTSYYEDSVEGRFTISRDNAKSMVYLQMNSLKPEDTAVYYCGRDRVPGHTWLARPSQADFGSWGQGTQVTVSS
notes: as for B1
B10: nanobody F7 (VHH)
VHH: QVQLQESGGGLVQPGGSLRLSCAASGSAFSRVAMGWYRQAPGKLREYVADITYGGATDYADSVKGRFTISRDNAKNTIYLQMDSLKPEDTAVYYCNLVPPIGGYWGQGTQVTVSS
notes: as for B1
B11: nanobody A10 (VHH)
VHH: QVQLQESGGGLVQPGGSLRLSCAASGIIFSSNTMGWYRQAPGKQRELVASFSGETGANYADSVKGRFIIRRDNAKNAVYLLMNSLKPDDTAAYYCHADRFGTDYWGQGTQVTVSS
notes: as for B1
B12: nanobody B12 (VHH)
VHH: QVQLQESGGGLVQAGGSLRLSCAASGRTFSSLTMGWFRQAPGKEREFVAGNAWNWSDGTTYYADSVRGRFTISRDNAKKTVYLQMNSLKPEDTAVYYCACAGDRPRVRVPVNSNDYDYWGQGTQVTVSS
notes: as for B1

What was measured:
Pf12p D2 = biological target: T2, Pf12p D2 (Plasmodium falciparum (3D7 entry …, UniProt C6KSX1)); assay: ELISA; MaxiSorp wells coated with 65 nM recombinant protein (Pf12p D1D2, Pf12p D2, Pf12 or Pf41) in PBS; 65 nM nanobody, 1 h at RT; bound nanobody detected with mouse anti-His and HRP-conjugated anti-mouse; duplicates; conditions: both partners purified
T2 construct: Pf12p, 6-cysteine protein of Plasmodium falciparum, amino acids N168-S341: the C-terminal domain D2 only; Same vector and protocol as Pf12p D1D2; source: Sf21 insect cells (baculovirus, secreted), purified (Ni-NTA, TEV cleavage, SEC); not shown: His8, N-terminal, cleaved

Pf12 D1D2 = biological target: T3, Pf12 D1D2 (Plasmodium falciparum, UniProt C6KSX0); assay: as above; conditions: both partners purified
T3 construct: Pf12, 6-cysteine protein of Plasmodium falciparum, residues N28-S304 (domains D1 and D2); Called untagged for the BLI; also called untagged Pf12 D1D2; recombinant Pf12; source: Sf21 insect cells (baculovirus), purified following the protocol of Pf12p with some modifications; not shown: His8, N-terminal, cleaved

Pf41 D1D2 = biological target: T4, Pf41 D1D2 (Plasmodium falciparum, UniProt Q8I1Y0); assay: as above; conditions: both partners purified
T4 construct: Pf41, 6-cysteine protein of Plasmodium falciparum, residues K21-S368 (domains D1 and D2); The Pf41 of the ELISA and of the SEC study; also called recombinant Pf41; source: Sf21 insect cells (baculovirus), purified following the protocol of Pf12p with some modifications

Pf12p D1D2 [1] = biological target: T5, Pf12p D1D2 (Plasmodium falciparum, UniProt C6KSX1); assay: far-Western, overlay or dot blot; purified Pf12p D1D2 run on 4-12% Bis-Tris SDS-PAGE under reduced and non-reduced conditions, blotted on PVDF, probed with 0.5 ug/ml nanobody, detected with HRP-conjugated goat anti-llama IgG; conditions: both partners purified
T5 construct: also called recombinant Pf12p; untagged Pf12p D1D2; source: Sf21 insect cells (baculovirus, secreted), purified (Ni-NTA, TEV cleavage, SEC); not shown: His8, N-terminal, cleaved

Pf12p D1D2 [2] = biological target: T5, Pf12p D1D2; assay: BLI; Octet RED96e; nanobodies (5 ug/ml) loaded on Ni-NTA sensors; untagged Pf12p D1D2 6-200 nM in solution (13-400 nM for A10); PBS pH 7.4, 0.1% BSA, 0.05% Tween-20, 25 C; global 1:1 fit; mean of three experiments; conditions: both partners purified
[3] = biological target: Nine out of 10 nanobodies (alpaca); assay: as above
His-tagged Pf41 = biological target: T1, His-tagged Pf41; assay: BLI; His-tagged Pf41 (10 or 20 ug/ml) loaded on Ni-NTA sensors; untagged Pf12 D1D2 or untagged Pf12p D1D2 in solution, 16-500 nM or 31-1000 nM; PBS pH 7.4, 0.1% BSA, 0.05% Tween-20, 25 C; 1:1 fit; conditions: both partners purified
Pf12p D1D2 [4] = biological target: T5, Pf12p D1D2; assay: ELISA; MaxiSorp wells coated with 65 nM recombinant protein (Pf12p D1D2, Pf12p D2, Pf12 or Pf41) in PBS; 65 nM nanobody, 1 h at RT; bound nanobody detected with mouse anti-His and HRP-conjugated anti-mouse; duplicates; conditions: both partners purified

Binder | binding result (Pf12p D2) | binding result (Pf12 D1D2) | binding result (Pf41 D1D2) | binding result (Pf12p D1D2 [2]) | other results
B1 | binds | no binding (tested: 65 nM) | no binding (tested: 65 nM) | – | binding result (Pf12p D1D2 [1]): binds
B2 | binds | no binding (tested: 65 nM) | no binding (tested: 65 nM) | – | binding result (Pf12p D1D2 [1]): binds
B3 | – | no binding (tested: 65 nM) | no binding (tested: 65 nM) | binds | –
B4 | binds | no binding (tested: 65 nM) | no binding (tested: 65 nM) | binds | –
B5 | binds | no binding (tested: 65 nM) | no binding (tested: 65 nM) | binds | –
B6 | – | – | – | – | Kd [3]: 3 nM; kon [3]: 100000 M⁻¹ s⁻¹
B7 | binds | no binding (tested: 65 nM) | no binding (tested: 65 nM) | binds | –
B8 | – | – | – | – | Kd (His-tagged Pf41): 144 ± 22.6 nM
B9 | binds | no binding (tested: 65 nM) | no binding (tested: 65 nM) | – | binding result (Pf12p D1D2 [4]): binds
B10 | binds | no binding (tested: 65 nM) | no binding (tested: 65 nM) | – | binding result (Pf12p D1D2 [1]): binds
B11 | – | no binding (tested: 65 nM) | no binding (tested: 65 nM) | – | Kd (Pf12p D1D2 [2]): ~105 nM
B12 | – | no binding (tested: 65 nM) | no binding (tested: 65 nM) | binds | –
